{"source": "patent US20220008473A1", "about": "(CRISPR THERAPEUTICS, published 2022)", "molecular_target": "T1, biotinylated recombinant human BCMA (ACROS Cat #BC7-H82F0) (human, UniProt Q02223 1-54, biotinylated (site not stated))", "T1 construct": "Bought reagent; also called CD269; B-cell maturation antigen", "T1 sequence (looked up)": "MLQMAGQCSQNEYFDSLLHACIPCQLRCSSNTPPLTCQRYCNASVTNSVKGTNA", "experiment": "flow cytometry of CAR T cells stained with biotinylated recombinant antigen", "data": [{"binder": "anti-BCMA CAR comprising the amino acid sequence of SEQ ID NO: 86 (other, Chimeric antigen receptor on engineered human T cells) QVQLVQSGAELKKPGASVKVSCKASGNTLTNYVIHWVRQAPGQRLEWMGYILPYNDLTKYSQKFQGRVTITRDKSASTAYMELSSLRSEDTAVYYCTRWDWDGFFDPWGQGTTVTVSSGGGGSGGGGSGGGGSEIVMTQSPATLSVSPGERASISCRASQSLVHSNGNTHLHWYQQRPGQAPRLLIYSVSNRFSEVPARFSGSGSGTDFTLTISSVESEDFAVYYCSQTSHIPYTFGGGTKLEIKSAAAFVPVFLPAKPTTTPAPRPPTPAPTIASQPLSLRPEACRPAAGGAVHTRGLDFACDIYIWAPLAGTCGVLLLSLVITLYCNHRNRKRGRKKLLYIFKQPFMRPVQTTQEEDGCSCRFPEEEEGGCELRVKFSRSADAPAYQQGQNQLYNELNLGRREEYDVLDKRRGRDPEMGGKPRRKNPQEGLYNELQKDKMAEAYSEIGMKGERRRGKGHDGLYQGLSTATKDTYDALHMQALPPR", "values": [{"measurement": "binding result", "result": "binds"}]}]}
